Usually Kd stands for the free concentration of one partner at which half of the binding sites on the other are occupied at equilibrium, for simple one-to-one binding. A high value points to lower affinity. One may read the koff as a measure of how fast the partners let go of each other. In general, kon refers to the rate constant with which the complex forms. The low end stands for slow association, the high end for fast association.

Data on 14 molecules can be found in patent US20250297029A1 (NANJING LEGEND BIOTECH, published 2025).

B1: VL1-VH2 humanized scFv (scFv, not shown: a dimerising Fc or GST)
scFv: DIVMTQTPLSLSVTPGQPASISCRSSQSLVHSNGNTYLHWYLQKPGQSPQLLIYKVSNRFSGVPDRFSGSGSGTDFTLKISRVEAEDVGVYYCSQNTHVPPTFGQGTKVEIKGGGGSGGGGSGGGGSQVQLVQSGAEVKKPGASVKVSCKASGYTFTDYEMHWVRQAPGQGLEWMGALDPKTGDTAYSQKFKGRVTLTADTSTSTVYMELSSLRSEDTAVYYCTRFYSYTYWGQGTLVTVSS
notes: Crude scFv with Fc tag from HEK293 supernatant
B2: VL1-VH2.M1 humanized scFv (scFv, not shown: a dimerising Fc or GST)
scFv: DIVMTQTPLSLSVTPGQPASISCRSSQSLVHSNGNTYLHWYLQKPGQSPQLLIYKVSNRFSGVPDRFSGSGSGTDFTLKISRVEAEDVGVYYCSQNTHVPPTFGQGTKVEIKGGGGSGGGGSGGGGSQVQLVQSGAEVKKPGASVKVSCKASGYTFTSYEMHWVRQAPGQGLEWMGALDPKTGDTAYSQKFKGRVTLTADTSTSTVYMELSSLRSEDTAVYYCTRFYSYTYWGQGTLVTVSS
notes: as for B1
B3: VL1.M2-VH2.M5 humanized scFv (scFv, not shown: a dimerising Fc or GST)
scFv: DIVMTQTPLSLSVTPGQPASISCRSSQSLVHSNGNTYLHWYLQKPGQSPQLLIYKVSSRFSGVPDRFSGSGSGTDFTLKISRVEAEDVGVYYCSQNTHVPPTFGQGTKVEIKGGGGSGGGGSGGGGSQVQLVQSGAEVKKPGASVKVSCKASGYTFTDYEMHWVRQAPGQGLEWMGALDPKTGDTAYSQKFQGRVTLTADTSTSTVYMELSSLRSEDTAVYYCTRFYSYTYWGQGTLVTVSS
notes: as for B1
B4: VL1-VH2.M6 humanized scFv (scFv, not shown: a dimerising Fc or GST)
scFv: DIVMTQTPLSLSVTPGQPASISCRSSQSLVHSNGNTYLHWYLQKPGQSPQLLIYKVSNRFSGVPDRFSGSGSGTDFTLKISRVEAEDVGVYYCSQNTHVPPTFGQGTKVEIKGGGGSGGGGSGGGGSQVQLVQSGAEVKKPGASVKVSCKASGYTFTSYEMHWVRQAPGQGLEWMGALDPKTGDTAYSQKFQGRVTLTADTSTSTVYMELSSLRSEDTAVYYCTRFYSYTYWGQGTLVTVSS
notes: as for B1
B5: VL1-VH2.M5 humanized scFv (scFv, not shown: a dimerising Fc or GST)
scFv: DIVMTQTPLSLSVTPGQPASISCRSSQSLVHSNGNTYLHWYLQKPGQSPQLLIYKVSNRFSGVPDRFSGSGSGTDFTLKISRVEAEDVGVYYCSQNTHVPPTFGQGTKVEIKGGGGSGGGGSGGGGSQVQLVQSGAEVKKPGASVKVSCKASGYTFTDYEMHWVRQAPGQGLEWMGALDPKTGDTAYSQKFQGRVTLTADTSTSTVYMELSSLRSEDTAVYYCTRFYSYTYWGQGTLVTVSS
notes: as for B1
B6: VL1.M2-VH2 humanized scFv (scFv, not shown: a dimerising Fc or GST)
scFv: DIVMTQTPLSLSVTPGQPASISCRSSQSLVHSNGNTYLHWYLQKPGQSPQLLIYKVSSRFSGVPDRFSGSGSGTDFTLKISRVEAEDVGVYYCSQNTHVPPTFGQGTKVEIKGGGGSGGGGSGGGGSQVQLVQSGAEVKKPGASVKVSCKASGYTFTDYEMHWVRQAPGQGLEWMGALDPKTGDTAYSQKFKGRVTLTADTSTSTVYMELSSLRSEDTAVYYCTRFYSYTYWGQGTLVTVSS
notes: as for B1
B7: VL1.M2-VH2.M1 humanized scFv (scFv, not shown: a dimerising Fc or GST)
scFv: DIVMTQTPLSLSVTPGQPASISCRSSQSLVHSNGNTYLHWYLQKPGQSPQLLIYKVSSRFSGVPDRFSGSGSGTDFTLKISRVEAEDVGVYYCSQNTHVPPTFGQGTKVEIKGGGGSGGGGSGGGGSQVQLVQSGAEVKKPGASVKVSCKASGYTFTSYEMHWVRQAPGQGLEWMGALDPKTGDTAYSQKFKGRVTLTADTSTSTVYMELSSLRSEDTAVYYCTRFYSYTYWGQGTLVTVSS
notes: as for B1
B8: VL1.M3-VH2.M6 humanized scFv (scFv, not shown: a dimerising Fc or GST)
scFv: DIVMTQTPLSLSVTPGQPASISCRSSQSLVHSNGKTYLHWYLQKPGQSPQLLIYKVSSRFSGVPDRFSGSGSGTDFTLKISRVEAEDVGVYYCSQNTHVPPTFGQGTKVEIKGGGGSGGGGSGGGGSQVQLVQSGAEVKKPGASVKVSCKASGYTFTSYEMHWVRQAPGQGLEWMGALDPKTGDTAYSQKFQGRVTLTADTSTSTVYMELSSLRSEDTAVYYCTRFYSYTYWGQGTLVTVSS
B9: VL1.M2-VH2.M9 humanized scFv (scFv, not shown: a dimerising Fc or GST)
scFv: DIVMTQTPLSLSVTPGQPASISCRSSQSLVHSNGNTYLHWYLQKPGQSPQLLIYKVSSRFSGVPDRFSGSGSGTDFTLKISRVEAEDVGVYYCSQNTHVPPTFGQGTKVEIKGGGGSGGGGSGGGGSQVQLVQSGAEVKKPGASVKVSCKASGYTFTSYEMHWVRQAPGQGLEWMGALDPKGGDTAYSQKFQGRVTLTADTSTSTVYMELSSLRSEDTAVYYCTRFYSYTYWGQGTLVTVSS
B10: VL1.M2-VH2.M10 humanized scFv (scFv, not shown: a dimerising Fc or GST)
scFv: DIVMTQTPLSLSVTPGQPASISCRSSQSLVHSNGNTYLHWYLQKPGQSPQLLIYKVSSRFSGVPDRFSGSGSGTDFTLKISRVEAEDVGVYYCSQNTHVPPTFGQGTKVEIKGGGGSGGGGSGGGGSQVQLVQSGAEVKKPGASVKVSCKASGYTFTSYEMHWVRQAPGQGLEWMGALDPSGGDTAYSQKFQGRVTLTADTSTSTVYMELSSLRSEDTAVYYCTRFYSYTYWGQGTLVTVSS
B11: VL1.M7-VH2.M6 humanized scFv (scFv, not shown: a dimerising Fc or GST)
scFv: DIVMTQTPLSLSVTPGQPASISCRSSQSLVHSNGNTYLHWYLQKPGQSPQLLIYKVSSRFSGVPDRFSGSGSGTDFTLKISRVEAEDVGVYYCSQGTHVPPTFGQGTKVEIKGGGGSGGGGSGGGGSQVQLVQSGAEVKKPGASVKVSCKASGYTFTSYEMHWVRQAPGQGLEWMGALDPKTGDTAYSQKFQGRVTLTADTSTSTVYMELSSLRSEDTAVYYCTRFYSYTYWGQGTLVTVSS
B12: VL1.M6-VH2.M6 humanized scFv (scFv, not shown: a dimerising Fc or GST)
scFv: DIVMTQTPLSLSVTPGQPASISCRSSQSLVHSNGNTYLHWYLQKPGQSPQLLIYKVSSRFSGVPDRFSGSGSGTDFTLKISRVEAEDVGVYYCMQNTHVPPTFGQGTKVEIKGGGGSGGGGSGGGGSQVQLVQSGAEVKKPGASVKVSCKASGYTFTSYEMHWVRQAPGQGLEWMGALDPKTGDTAYSQKFQGRVTLTADTSTSTVYMELSSLRSEDTAVYYCTRFYSYTYWGQGTLVTVSS
B13: VL1.M8-VH2.M6 humanized scFv (scFv, not shown: a dimerising Fc or GST)
scFv: DIVMTQTPLSLSVTPGQPASISCRSSQSLVHSNGNTYLHWYLQKPGQSPQLLIYKVSSRFSGVPDRFSGSGSGTDFTLKISRVEAEDVGVYYCSQNTHWPPTFGQGTKVEIKGGGGSGGGGSGGGGSQVQLVQSGAEVKKPGASVKVSCKASGYTFTSYEMHWVRQAPGQGLEWMGALDPKTGDTAYSQKFQGRVTLTADTSTSTVYMELSSLRSEDTAVYYCTRFYSYTYWGQGTLVTVSS
B14: VL1.M2-VH2.M8 humanized scFv (scFv, not shown: a dimerising Fc or GST)
scFv: DIVMTQTPLSLSVTPGQPASISCRSSQSLVHSNGNTYLHWYLQKPGQSPQLLIYKVSSRFSGVPDRFSGSGSGTDFTLKISRVEAEDVGVYYCSQNTHVPPTFGQGTKVEIKGGGGSGGGGSGGGGSQVQLVQSGAEVKKPGASVKVSCKASGYTFTSYEMHWVRQAPGQGLEWMGALDPSTGDTAYSQKFQGRVTLTADTSTSTVYMELSSLRSEDTAVYYCTRFYSYTYWGQGTLVTVSS

The first test deals with T1, GPC3 (UniProt P51654 25-559, limits assumed).
T1 construct: also called antigen GPC3; Glypican 3
T1 sequence (P51654 25-559 limits assumed): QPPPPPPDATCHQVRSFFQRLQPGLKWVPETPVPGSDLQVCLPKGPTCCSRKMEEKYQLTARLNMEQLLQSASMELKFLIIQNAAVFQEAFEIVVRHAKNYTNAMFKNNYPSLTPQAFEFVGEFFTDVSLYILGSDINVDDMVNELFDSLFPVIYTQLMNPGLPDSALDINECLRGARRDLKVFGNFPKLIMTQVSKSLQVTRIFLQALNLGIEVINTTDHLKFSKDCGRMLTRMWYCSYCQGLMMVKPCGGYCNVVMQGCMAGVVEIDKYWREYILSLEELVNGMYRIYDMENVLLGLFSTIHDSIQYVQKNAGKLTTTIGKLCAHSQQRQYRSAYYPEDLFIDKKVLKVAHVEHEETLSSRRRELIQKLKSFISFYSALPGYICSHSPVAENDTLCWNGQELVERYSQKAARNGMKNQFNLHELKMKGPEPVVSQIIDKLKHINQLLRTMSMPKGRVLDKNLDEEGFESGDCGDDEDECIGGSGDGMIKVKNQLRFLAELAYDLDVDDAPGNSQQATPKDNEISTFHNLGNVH
The test is described as follows: SPR (Biacore T200); scFv-Fc captured by anti-human Fc pAb, GPC3 10-320 nM in flow. The text has this: (§1) The humanized VLs (VL1 and VL1.M2) were connected to humanized VHs (VH2, VH2.M1, VH2.M5 and VH2.M6) with a (G4S)₃ linker (SEQ ID NO: 10) to construct humanized scFvs. These scFvs were expressed with a C-terminal Fc tag in HEK293 cells. The crude scFv proteins secreted to the cell culture supernatant were used for binding affinity determination using surface plasmon resonance (SPR) on a Biacore T200 machine. Briefly, the scFv protein was captured on the sensor chip pre-coated with goat-anti-human Fc polyclonal antibody (pAb) (Jackson ImmunoResearch, cat #109-005-098) via the interaction between pAb and the Fc tag, then the antigen GPC3 concentration ranging from 10 nM to 320 nM flowed through the sensor chip. After 100 s of association, running buffer (10 mM HEPES, 150 mM NaCl, 3 mM EDTA, 0.005% Tween-20, pH 7.4) flowed through the sensor chip to allow the scFv-GPC3 complex to dissociation. The sensor chip was regenerated using 50 mM HCl between cycles.
With B1, binding was characterised by a dissociation constant (Kd) of 1.7 nM, the koff was 0.00029 s⁻¹ and the kon is 170000 M⁻¹ s⁻¹.
With B2, the Kd was found to be 1.9 nM, the koff is 0.00036 s⁻¹ and the kon came to 190000 M⁻¹ s⁻¹.
Take B3: the Kd amounted to 2.1 nM, the koff was determined as 0.00037 s⁻¹ and the kon worked out at 170000 M⁻¹ s⁻¹.
The matching figures for B4: 2 nM, 0.00037 s⁻¹ and 190000 M⁻¹ s⁻¹.
The like results for B5 were, in that order, 1.6 nM, 0.00027 s⁻¹ and 170000 M⁻¹ s⁻¹.
The like results for B6 were, in that order, 2.2 nM, 0.00035 s⁻¹ and 160000 M⁻¹ s⁻¹.
The molecule B7 yielded a Kd of 3 nM, a koff of 0.00051 s⁻¹ and a kon of 170000 M⁻¹ s⁻¹.

The next test deals with T1, GPC3. The experiment in a line: SPR as in Example 1 (Biacore T200; scFv-Fc captured, GPC3 in flow).
Excerpt: as §1
To further improve the humanization of anti-GPC3 scFvs, additional amino acid residues in VH1 and VL1 were mutated to their human germline counterparts. In HCDR2 of VH2.M6, mutations K54S, T55G or both were introduced, yielding VH2.M8 (SEQ ID NO: 11), VH2.M9 (SEQ ID NO: 12) and VH2.M10 (SEQ ID NO: 13) sequences, respectively. Mutation D57S was introduced to VH2.M6, yielding VH2.M11 sequence (SEQ ID NO: 14). All three additional mutations was introduced to VH2.M6, yielding VH2.M12 sequence (SEQ ID NO: 15). Similarly for VL1.M2, an additional N35K mutation was introduced to LCDR1, yielding VL1.M3 (SEQ ID NO: 16). Additional S94M, N96G and V99W mutations were introduced to LCDR3 of VL1.M2 individually, yielding VL1.M6 (SEQ ID NO: 17), VL1.M7 (SEQ ID NO: 18) and VL1.M8 (SEQ ID NO: 19) sequences, respectively. Additional S94M mutations was introduced to LCDR3 of VL1, yielding VL1.M9 (SEQ ID NO: 137) sequence. The binding affinity of these humanized variants were again determined using SPR as described in Example 1 (Table 5).
Consider B8, for which binding was put at a Kd of 27 nM, the koff was 0.0016 s⁻¹ and the kon worked out at 61000 M⁻¹ s⁻¹.
Turning to B9, binding was put at a Kd of 8.2 nM, the koff came to 0.0006 s⁻¹ and the kon was 74000 M⁻¹ s⁻¹.
The like results for B10 were, in that order, 6.8 nM, 0.0005 s⁻¹ and 74000 M⁻¹ s⁻¹.
As to B11, binding was put at a Kd of 51 nM, the koff amounted to 0.0034 s⁻¹ and the kon is 67000 M⁻¹ s⁻¹.
As for B12, binding was characterised by a dissociation constant (Kd) of 5.7 nM, the koff is 0.00058 s⁻¹ and the kon was 100000 M⁻¹ s⁻¹.
The matching figures for B13: 44 nM, 0.0042 s⁻¹ and 94000 M⁻¹ s⁻¹.
B14 came in with a Kd of 6 nM, a koff of 0.00044 s⁻¹ and a kon of 74000 M⁻¹ s⁻¹.
